Measured values: US20110312891A1, “ENAMEL MATRIX DERIVATIVE FRACTION C” (Straumann Holding AG, priority 2008, published 2011)

B1: PTH: PTH peptides compared with EMD on primary osteoblasts (protein, UniProt P01270 32-115, looked up)
Parathyroid hormone: SVSEIQLMHNLGKHLNSMERVEWLRKKLQDVHNFVALGAPLAPRDAGSQRPRKKEDNVLVESHEKSLGEADKADVNVLTKAKSQ
modifications: Parathyroid hormone
notes: PTH peptides compared with EMD on primary osteoblasts
B2: rhAmel: recombinant human amelogenin over-expressed in Escherichia Coli (protein, UniProt Q99217 17-191, looked up)
Amelogenin, X isoform: MPLPPHPGHPGYINFSYEVLTPLKWYQSIRPPYPSYGYEPMGGWLHHQIIPVLSQQHPPTHTLQPHHHIPVVPAQQPVIPQQPMMPVPGQHSMTPIQHHQPNLPPPAQQPYQPQPVQPQPHQPMQPQPPVHPMQPLPPQPPLPPMFPMQPLPPMLPDLTLEAWPSTDKTKREEVD

Tests used:
osteoblasts = test: Effect of fraction C, its isoforms and synthetic amelogenin peptides on bone markers in osteoblasts; type: cell-based; settings: for LDH activity in the culture medium: compared with fraction C and the mix of peptides (3113), slightly more toxic effect
Protocol: We have tested synthetic peptides of amelogenin (exon1, 3 and 5) of various lengths.
Fraction C, having a molecular weight of 5250.4 g/mol was used at a final concentration of 5 μg/ml (0.9 μmol/L). The peptides were used in a molar concentration similar to fraction C. WBRA001 enhanced osteocalcin and CD44 expression and secretion similar to fraction C, the smaller peptides had no effect on the bone markers in osteoblasts. 5 kDa amelogenins, isolated from EMD batch 3113 was identified to contain both; C1RP or C2RP (1-43 and 1-45 TRAP), whereas the fraction C isolated from EMD batch 9121 contains not only C1RP and C2R (1-43 and 1-45 TRAP), but 2 further, unidentified minor peaks. The effect of the different isoforms on expression of bone markers was tested on osteoblasts.

MG63 cells = test: WST-1 cell proliferation and viability assay; type: cell-based, human; settings: 1 μg/mL; after 7 days; compared to the negative control
Protocol: Minimum Essential Medium Eagle (MEM)+10% Fetal calf serum +1% Penicilin-Streptomycin (×100)+1% Non Essential Amino Acid Solution (×100)+1% L-Glutamine (200 mM) Seeding density MG63 cells in passage 4 were seeded with a density of 10,000 cells/cm2 on 96 wells culture plates. Sampling was performed after 24 hours and 7 days in vitro.
Furthermore, the proliferation reagent WST-1 test was performed to assess cell proliferation and viability. WST-1 solution was added in a final solution of 1:10 to the monolayer culture and cells were incubated at 37° C. for a further 1 hour. The absorbance of the supernatants was measured spectrophotometrically using VersaMax micro plate reader (Molecular Devices, California, USA) at 420 nm-480 nm with a reference wavelength of 600 nm. Results are reported as optical density (OD).

primary osteoblasts = test: Affymetrix gene chip analysis of primary osteoblasts, EMD versus PTH; type: cell-based, human; settings: 24 h after stimulation; cells of two donors
Protocol: Commercially available primary human osteoblasts from both femur and tibia of different donors (NHOst cell system; Cambrex, Walkersville, Md., USA) were grown in osteoblast growth media (OGM, Cambrex). Cultured osteoblasts were exposed to hydrocortisone hemisuccinate (200 nM) and h-glycerophosphate (10 mM) (Cambrex) in ambient medium to facilitate mineralization. The phenotype of cells was characterized based on the expression levels of alkaline phosphatase (ALP), collagen type 1, osteocalcin, and CD44 (late differentiation marker), and formation of mineralization nodules.
Primary osteoblasts were cultured in T75 culture flasks and cultured after treatment for 24 h, 72 h or 7d respectively and lysed in 7 ml Trizol solution (Gibco, USA). Trizol lysates were kept at −70° C. until RNA isolation according to the manufacturer's protocols and further processing (Dep. of Medical Biochemistry, Oslo University, Norway). Double stranded cDNA and biotin labeled cRNA probes were made from 5 μg total RNA using the Superscript Choice system (Invitrogen) and the Enzo Bioarray respectively. Procedures were according to recommendations from Affymetrix. […]
To compare the effects of PTH peptides and EMD on primary osteoblasts, cells of two donors were treated synchronously and expression patterns were analysed by affymetrix gene chip analysis. […]

[1] = system: MG63 human osteoblast-like cells; test: Osteoblast differentiation in confluent MG63 cultures treated for 24 hours (DNA, ALP, osteocalcin, OPG, VEGF, FGF-2); type: cell-based
Protocol: Methods: Confluent cultures of MG63 human osteoblast-like cells and normal human osteoblasts were treated with or without EMD, recombinant human amelogenin (rhAmel), Fraction A (0.01-100 μg/ml) or Fraction C (0.1-250 μg/ml) for 24 hours. Effects on DNA content and alkaline phosphatase specific activity (ALP), and osteocalcin (OCN), osteoprotegerin (OPG), vascular endothelial growth factor A (VEGF-A) and fibroblast growth factor-2 (FGF-2) levels in the conditioned media were determined.
MG63 osteoblast-like cells, originally isolated from a human osteosarcoma, were obtained from the American Type Culture Collection (Rockville, Md.). […]
MG63 Cells were cultured in Dulbecco's modified Eagle medium (DMEM) containing 10% fetal bovine serum (FBS) and 1% penicillin and streptomycin at 37° C. in an atmosphere of 5% CO2 and 100% humidity. […] The levels of osteocalcin in the conditioned media were measured using a commercially available radioimmunoassay kit (Human Osteocalcin RIA Kit, Biomedical Technologies, Stoughton, Mass.) and normalized to DNA content. […] Osteoprotegerin was measured using enzyme-linked immunosorbent assay (ELISA) kit (DY805 Osteoprotegerin DuoSet, R&D Systems, Minneapolis, Minn.). VEGF was assesseds using an ELISA kit (RnD Systems). […] The absorbance of the samples was read using a microplate reader and the results analyzed using a standard curve. […]

Molecule | cell viability and proliferation (WST-1) (MG63 cells) | LDH activity in the culture medium (osteoblasts) | other results
MPLPP HPGHPGYINFSYEVLTPLKWYQSIRPP-OH [WBRA001] |  |  | osteocalcin and CD44 expression and secretion (osteoblasts; molar concentration similar to fraction C, 5 μg/ml (0.9 μmol/L)): enhanced
C2RP: Peak 2 of Frac C; SEQ.ID.NO: 2, 45AA form MPLPPHPGHPGYINFSYEVLTPLKWYQNMIRHP-YTSYGYEPMGGW (MPLPPHPGHPGYINFXYEVLTPLKWYQNMIRHPYTSYGYEPMGGW; MOD_RES (16)..(16) Ser or Glu, wherein Ser is optionally phosphorylated; listed as Sus scrofa) [Fraction C2RP] | clear effect | higher LDH activity | 
C1RP: Peak 1 of Frac C; SEQ.ID.NO: 1, 43AA form MPLPPHPGHPGYINFSYEVLTPLKWYQNMIRHP-YTSYGYEPMG (MPLPPHPGHPGYINFXYEVLTPLKWYQNMIRHPYTSYGYEPMG; MOD_RES (16)..(16) Ser or Glu, wherein Ser is optionally phosphorylated; listed as Sus scrofa) [Fraction C1RP] | clear effect | higher LDH activity | 
B1 |  |  | genes more than 2-fold changed in the same direction with both EMD and PTH from non-treated controls (primary osteoblasts): 254 genes
B2 |  |  | concentration of maximal increases in osteocalcin ([1]; FIG. 4): 1 µg/mL; osteocalcin production (dose response) ([1]; FIG. 4, N=6 cultures per variable, p<0.05 v. control): biphasic increase
